This passage reports Kd, koff and kon results from publication PMC6957483, “Anosmin-1 activates vascular endothelial growth factor receptor and its related signaling pathway for olfactory bulb angiogenesis” (Scientific Reports, 2020).

The target in the assay is T1, Recombinant human VEGFR2-Fc (human, UniProt P35968 20-764).
T1 construct: VEGF receptor-2 (VEGFR2, KDR), human; Probably the extracellular domain fused to an IgG Fc; In the functional rows this id stands for the whole VEGFR2 on HUVECs or PAE/KDR cells; also called VEGF receptor-2; KDR; source: bought: BioLegend
Nature of the assay: SPR; BIAcore, 20 °C; VEGFR2-Fc (50 µg/mL in 10 mM sodium acetate, pH 4.5) coupled to an EDC/NHS-activated CM5 chip; anosmin-1, its mutant or VEGF-A injected in PBS with 0.35 M NaCl at 30 µL/min; affinity calculated from the on- and off-rates. The settings on record: both partners purified.

T1 sequence (P35968 20-764): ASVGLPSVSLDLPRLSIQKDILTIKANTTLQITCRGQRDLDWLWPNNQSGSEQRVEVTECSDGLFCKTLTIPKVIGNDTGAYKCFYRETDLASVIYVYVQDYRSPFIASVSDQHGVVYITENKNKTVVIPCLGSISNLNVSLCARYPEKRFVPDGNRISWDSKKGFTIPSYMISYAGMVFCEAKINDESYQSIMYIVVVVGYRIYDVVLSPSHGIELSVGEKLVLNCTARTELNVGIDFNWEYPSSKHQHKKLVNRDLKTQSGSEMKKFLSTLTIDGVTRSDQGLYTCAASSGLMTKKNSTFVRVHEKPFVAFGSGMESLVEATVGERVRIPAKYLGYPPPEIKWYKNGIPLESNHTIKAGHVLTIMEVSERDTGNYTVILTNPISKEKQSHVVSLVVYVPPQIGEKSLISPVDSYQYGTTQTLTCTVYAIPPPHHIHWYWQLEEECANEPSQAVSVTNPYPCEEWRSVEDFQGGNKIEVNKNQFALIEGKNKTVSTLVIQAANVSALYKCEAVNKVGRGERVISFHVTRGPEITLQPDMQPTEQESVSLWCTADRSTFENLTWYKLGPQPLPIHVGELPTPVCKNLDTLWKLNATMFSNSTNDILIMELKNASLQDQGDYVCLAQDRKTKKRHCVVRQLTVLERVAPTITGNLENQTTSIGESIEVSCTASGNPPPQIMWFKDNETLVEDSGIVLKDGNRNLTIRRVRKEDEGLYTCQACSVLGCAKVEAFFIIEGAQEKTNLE

B1: Recombinant human anosmin-1 Δ2–4 deletion mutant (domain or fragment)
chain: AGPGAAAARRLDESLSAGSVQRARCASRCLSLQITRISAFFQHFQNNGSLVWCQNHKQCSKCLEPCKESGDLRKHQCQSFCEPLFPKKSYECLTSCEFLKYILLVKQGDCPAPEKASGFAAACVESCEVDNECSGVKKCCSNGCGHTCQVPKTLYKGVPLKPRKELRFTELQSGQLEVKWSSKFNISIEPVIYVVQRRWNYGIHPSEDDATHWQTVAQTTDERVQLTDIRPSRWYQFRVAAVNVHGTRGFTAPSKHFRSSKDP
modifications: secreted from 293T cells (pSecTag2; vector signal and His tag left out), likely N-glycosylated; cysteine box + WAP + first FnIII kept, FnIII 2-4 and His-rich region deleted; C-terminal limit taken …
Regarding B1, the Kd (as a rule, the free concentration of one partner at which half of the binding sites on the other are occupied at equilibrium, for simple one-to-one binding) was 1400 nM; the koff (commonly the first-order rate constant of dissociation) is 0.046 s⁻¹; the on-rate (kon) (as a rule, a measure of how fast the partners come together) was 34000 M⁻¹ s⁻¹.

B2: Recombinant human anosmin-1 wild-type (natural protein, UniProt P23352 25-680, looked up)
chain: AGPGAAAARRLDESLSAGSVQRARCASRCLSLQITRISAFFQHFQNNGSLVWCQNHKQCSKCLEPCKESGDLRKHQCQSFCEPLFPKKSYECLTSCEFLKYILLVKQGDCPAPEKASGFAAACVESCEVDNECSGVKKCCSNGCGHTCQVPKTLYKGVPLKPRKELRFTELQSGQLEVKWSSKFNISIEPVIYVVQRRWNYGIHPSEDDATHWQTVAQTTDERVQLTDIRPSRWYQFRVAAVNVHGTRGFTAPSKHFRSSKDPSAPPAPANLRLANSTVNSDGSVTVTIVWDLPEEPDIPVHHYKVFWSWMVSSKSLVPTKKKRRKTTDGFQNSVILEKLQPDCDYVVELQAITYWGQTRLKSAKVSLHFTSTHATNNKEQLVKTRKGGIQTQLPFQRRRPTRPLEVGAPFYQDGQLQVKVYWKKTEDPTVNRYHVRWFPEACAHNRTTGSEASSGMTHENYIILQDLSFSCKYKVTVQPIRPKSHSKAEAVFFTTPPCSALKGKSHKPVGCLGEAGHVLSKVLAKPENLSASFIVQDVNITGHFSWKMAKANLYQPMTGFQVTWAEVTTESRQNSLPNSIISQSQILPSDHYVLTVPNLRPSTLYRLEVQVLTPGGEGPATIKTFRTPELPPSSAHRSHLKHRHPHHYKPSPERY
notes: anosmin-1, human, product of the ANOS1 gene; also called anosmin-1 WT; WT; source: 293 T cells (pSecTag2 vector), conditioned media, purified (HisTrap HP column, PD-10 column)
Consider B2, for which the Kd was 32 nM, the koff is 0.0011 s⁻¹ and the kon is 35000 M⁻¹ s⁻¹.
